Experimental data taken from patent US20250002577A1 (ONCORESPONSE, published 2025).

Tests used:
human LILRB2 on cells = target: T1, human LILRB2 on cells (human, UniProt Q8N423 22-597); assay: flow cytometry, AF647-labelled antibody on HEK293T cells stably expressing human LILRB2
T1 construct: whole, on cells; also called hLILRB2; LILRB2-HEK293T
Description: While LILRB2 expression is mostly restricted to myeloid cells, LILRB1 has a broader expression on immune cell subsets, including B cells, T cells and NK cells.
Frozen cells were removed from storage in vapor phase liquid nitrogen and thawed by gentle swirling in a water bath at 37° C., then resuspended in DMEM media with 10% FBS. Cells were placed in a 15 mL conical tube and centrifuged at 300×g for 5 min, then supernatant was removed. Cells were resuspended in DMEM+10% FBS at a cell density of 2×10⁵ cells/mL in a T75 flask for culturing, and incubated at 37° C., 5% CO₂ for 3 days before passaging. Cells were passaged when the cell density reached 1×10⁶ cell/mL. On the day of the assay, cells were centrifuged, then supernatant was removed. Cells were resuspended in Blocking Buffer B (FACS Buffer containing 10% FBS and 0.5 mg/mL human IgG1 (Athens Research, No. 16-16-090707-1M)+0.05% NaN₃, 5% (w/v)) in a 15 mL conical tube, then incubated at 4° C. for 30 min. […] Cells were incubated with antibodies at 4° C. for 1 h. Cells were washed twice in FACS Buffer (PBS containing 2 mM EDTA+1% FBS+0.05% NaN₃) and then stained with for 10 min with Zombie Violet™ fixable viability dye (BioLegend, No. 423114) at RT, washed with FACS Buffer and resuspend in 75 μL of FACS Buffer for acquisition on a BD FACSymphony™ or BD FACSCanto™ II flow cytometer (BD Biosciences), as described in Example 6.

human LILRB1 on cells = target: T2, human LILRB1 on cells (human, UniProt Q8NHL6 24-650); assay: flow cytometry, AF647-labelled antibody at 10 µg/mL on human PBMC, gate: CD56dim CD16+ NK cells (LILRB1-expressing subset per paragraph 345)
T2 construct: whole, on cells; also called hLILRB1; LILRB1-expressing 721.221 cells
T2 sequence (Q8NHL6 24-650): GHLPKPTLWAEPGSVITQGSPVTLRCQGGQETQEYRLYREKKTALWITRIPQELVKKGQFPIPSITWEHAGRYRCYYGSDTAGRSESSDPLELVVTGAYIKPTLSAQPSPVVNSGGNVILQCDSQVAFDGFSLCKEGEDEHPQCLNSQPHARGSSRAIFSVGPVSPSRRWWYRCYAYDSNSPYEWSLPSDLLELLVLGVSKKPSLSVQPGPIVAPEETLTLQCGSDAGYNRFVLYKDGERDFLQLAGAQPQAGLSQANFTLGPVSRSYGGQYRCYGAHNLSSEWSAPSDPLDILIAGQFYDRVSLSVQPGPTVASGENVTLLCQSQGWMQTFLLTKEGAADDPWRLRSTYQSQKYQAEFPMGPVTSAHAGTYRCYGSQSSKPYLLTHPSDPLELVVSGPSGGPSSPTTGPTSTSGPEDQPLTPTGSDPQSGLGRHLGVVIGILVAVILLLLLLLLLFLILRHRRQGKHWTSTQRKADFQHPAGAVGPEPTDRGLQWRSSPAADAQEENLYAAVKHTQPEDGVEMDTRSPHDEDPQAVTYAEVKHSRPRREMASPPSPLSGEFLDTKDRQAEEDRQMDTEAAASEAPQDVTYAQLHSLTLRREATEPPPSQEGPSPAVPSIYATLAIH
Description: To further characterize the binding of LILRB2/1 antibodies to LILRB1 expressing immune cell subsets (namely, B, T, and NK cells), binding assays were performed with primary human PBMCs. Single cell suspensions of peripheral blood mononuclear cells (PBMCs) from healthy donors were seeded at 0.5 million per well in 96-well plates (Thermo Fisher, No. 249946). PBMCs were blocked with 0.5 mg/mL of human IgG1 myeloma plasma (Athens Research, No. 16-16-090707-1M) in FACS Buffer (PBS containing 2% FBS, 2 mM EDTA and 0.05% NaN₃) for 45 min to 1 h at 4° C. The immune cell phenotyping antibodies and indicated AlexaFluor647-labeled test antibodies were then added to the cells and incubated for 45 min to 1 h at 4° C.
Cells were washed 1× with PBS and stained with the Zombie Violet™ fixable viability dye for 15 min at RT for live cell discrimination. Cells were washed 1× with FACS Buffer, fixed, and acquired on a FACS Symphony cytometer (BD Biosciences). Data analysis was performed using the FlowJo software (v10.8.1). […]

T1 sequence (Q8N423 22-597): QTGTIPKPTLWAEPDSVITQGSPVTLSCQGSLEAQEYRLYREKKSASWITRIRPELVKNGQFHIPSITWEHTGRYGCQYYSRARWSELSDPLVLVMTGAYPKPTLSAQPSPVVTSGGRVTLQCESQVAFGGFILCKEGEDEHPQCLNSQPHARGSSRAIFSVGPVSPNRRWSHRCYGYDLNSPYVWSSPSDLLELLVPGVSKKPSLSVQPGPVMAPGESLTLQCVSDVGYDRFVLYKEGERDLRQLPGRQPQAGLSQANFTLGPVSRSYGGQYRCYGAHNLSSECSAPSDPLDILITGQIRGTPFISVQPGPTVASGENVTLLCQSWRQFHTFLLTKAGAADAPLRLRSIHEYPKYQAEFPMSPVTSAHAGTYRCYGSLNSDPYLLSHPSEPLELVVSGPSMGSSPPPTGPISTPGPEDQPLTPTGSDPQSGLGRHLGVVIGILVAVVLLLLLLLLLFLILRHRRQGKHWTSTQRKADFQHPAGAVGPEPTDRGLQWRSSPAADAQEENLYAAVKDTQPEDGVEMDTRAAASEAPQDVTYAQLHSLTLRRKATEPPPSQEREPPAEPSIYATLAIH

Row | EC50 (read off the curve) (human LILRB2 on cells) [nM] | binding result (human LILRB1 on cells) | Binder
1 | ~0.6 | – | Comp 2 (anti-LILRB2 antibody) (antibody, human IgG1, kappa, V domains shown) VH: QIQLVQSGPELKKPGETVKISCKASGYTFTNYGMNWVKQAPGKGLKWMGWINTYIGEPIYADDFKGRFAFSLETSASTAYLQINNLKNEDMATYFCARRSDYDGYAMDYWGQGTSVTVSS VL: DIVMSQSPSSLAVSVGERVTMSCKSSQSLLYSGNQKNYLAWYQQKPGQSPKLLIYWASTRESGVPDRFTGSGSGTDFTLTISSVKAEDLAVYYCQQHDSYPTFGGGSRLEIKR
2 | – | binds | Comp 1 (anti-LILRB1 antibody) (antibody, human IgG1, kappa, V domains shown) VH: QVQLKESGPGLVAPSQSLSITCTVSGFSLTNYGVSWVRQPPGKGLEWLGIIWGDGSTNYHSALISRLSISKDNSKSQVFLKLNSLQADDTATYYCAKPNWDTYAMDFWGQGTSVTVSS VL: DIQMTQTTSSLSASLGDRVTISCRASQDISNFLNWYQQKPDGTVKLLIYCTSKLHSGVPSRFSGSGSETDYSLTISNLEQEDIATYFCQQGNTLPPTFGGGTKLEIIR
